In patent US20160137740A1 (AstraZeneca / MedImmune, published 2016):

How the values were obtained:
Experiment in all cases: ELISA, plate coated with a dilution series of the recombinant TNFRSF protein [panel B]
[1] = molecular target: T1, Recombinant human TNFRSF21 (DR6) (human, UniProt O75509 42-349, limits assumed)
T1 construct: Plate-adsorbed antigen of the ELISA
T1 sequence (looked up): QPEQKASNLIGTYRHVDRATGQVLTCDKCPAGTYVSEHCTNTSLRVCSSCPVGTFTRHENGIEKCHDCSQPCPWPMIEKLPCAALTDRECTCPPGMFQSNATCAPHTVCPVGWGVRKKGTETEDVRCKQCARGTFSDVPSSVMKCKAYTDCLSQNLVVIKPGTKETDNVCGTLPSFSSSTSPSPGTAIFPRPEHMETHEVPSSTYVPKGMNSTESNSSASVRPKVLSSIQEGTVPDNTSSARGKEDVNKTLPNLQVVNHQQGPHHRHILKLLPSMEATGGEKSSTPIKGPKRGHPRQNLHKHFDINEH
Procedure: (§1) An eight point, two-fold dilution series of each recombinant human TNFRSF protein was prepared after dilution of stock proteins to 5 μg/mL in PBS. Subsequently, 50 μL of each antigen dilution was transferred in duplicate to wells of a Nunc 96-well MaxiSorp flat bottom plate, and incubated overnight at 4° C. to adsorb proteins to the plate. Afterwards, plates were washed three times with PBS in a BioTek® plate washer to remove unbound protein. Anti OX40 mAb29, 9B12, and control antibodies were diluted in PBS to a final concentration of 10 μg/mL, and 50 μL of mAb were added to each well and incubated at room temperature for one hour to bind mAb to plate-bound protein. Thereafter, wells were washed with PBS/Tween-20 0.1% (volume/volume) using a BioTek® plate washer. HRP conjugated goat anti-human or goat anti-mouse secondary antibodies at 10 μg/mL was added to each well and incubated at room temperature for 1 hour. After three washes in PBS/Tween-20 0.1%, 50 μL of TMB substrate was added to each well and incubated at room temperature for 5 minutes to develop the colorimetric product. Reactions were stopped by adding 50 μL of 0.5 molar H₂SO₄ to wells, and plates read immediately at 450 nm using an Envision C plate reader for detection of the colorimetric product.

[2] = molecular target: T2, Recombinant human TNFRSF9 (CD137) (human, UniProt Q07011 24-186, limits assumed)
T2 construct: Plate-adsorbed antigen of the ELISA
Procedure: as §1

[3] = molecular target: T3, Recombinant human TNFRSF1β (TNFRII) (human, UniProt P20333 23-257)
T3 construct: Plate-adsorbed antigen of the ELISA; also called TNFR2; TNFRSF1B
T3 sequence (looked up): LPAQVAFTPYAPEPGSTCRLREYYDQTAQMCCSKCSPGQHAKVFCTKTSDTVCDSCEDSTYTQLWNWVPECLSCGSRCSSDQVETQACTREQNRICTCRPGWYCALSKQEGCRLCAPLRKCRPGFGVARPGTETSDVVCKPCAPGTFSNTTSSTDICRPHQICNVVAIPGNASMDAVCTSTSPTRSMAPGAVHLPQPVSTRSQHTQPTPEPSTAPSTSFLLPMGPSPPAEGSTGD
Procedure: as §1

[4] = molecular target: T4, Recombinant human TNFRSF11B (OPG) (human, UniProt O00300 22-401, limits assumed)
T4 construct: Plate-adsorbed antigen of the ELISA; also called osteoprotegerin
T4 sequence (looked up): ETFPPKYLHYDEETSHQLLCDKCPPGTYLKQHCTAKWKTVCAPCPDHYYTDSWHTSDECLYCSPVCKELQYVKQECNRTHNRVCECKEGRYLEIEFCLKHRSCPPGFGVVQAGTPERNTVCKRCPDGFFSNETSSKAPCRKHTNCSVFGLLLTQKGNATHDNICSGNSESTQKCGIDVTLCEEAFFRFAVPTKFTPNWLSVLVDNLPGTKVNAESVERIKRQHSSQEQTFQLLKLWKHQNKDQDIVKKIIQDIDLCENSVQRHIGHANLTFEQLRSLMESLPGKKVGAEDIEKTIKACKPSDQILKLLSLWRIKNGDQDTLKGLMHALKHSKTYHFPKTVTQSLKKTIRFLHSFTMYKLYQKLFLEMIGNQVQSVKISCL
Procedure: as §1

[5] = molecular target: T5, Recombinant human TNFRSF18 (GITR) (human, UniProt Q9Y5U5 26-162, limits assumed)
T5 construct: Plate-adsorbed antigen of the ELISA
T5 sequence (looked up): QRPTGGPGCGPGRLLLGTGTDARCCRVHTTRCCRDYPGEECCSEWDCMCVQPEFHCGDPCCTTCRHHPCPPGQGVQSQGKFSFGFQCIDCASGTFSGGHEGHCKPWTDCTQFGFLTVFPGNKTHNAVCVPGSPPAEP
Procedure: as §1

[6] = molecular target: T6, Recombinant human TNFRSF6 (FAS) (human, UniProt P25445 26-173)
T6 construct: Plate-adsorbed antigen of the ELISA
T6 sequence (looked up): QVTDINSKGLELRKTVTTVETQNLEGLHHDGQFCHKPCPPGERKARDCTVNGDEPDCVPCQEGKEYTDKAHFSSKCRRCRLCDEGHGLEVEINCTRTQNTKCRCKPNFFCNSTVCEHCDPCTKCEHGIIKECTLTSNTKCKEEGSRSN
Procedure: as §1

[7] = molecular target: T7, Recombinant human TNFRSF16 (NGFR) (human, UniProt P08138 29-250)
T7 construct: Plate-adsorbed antigen of the ELISA
T7 sequence (looked up): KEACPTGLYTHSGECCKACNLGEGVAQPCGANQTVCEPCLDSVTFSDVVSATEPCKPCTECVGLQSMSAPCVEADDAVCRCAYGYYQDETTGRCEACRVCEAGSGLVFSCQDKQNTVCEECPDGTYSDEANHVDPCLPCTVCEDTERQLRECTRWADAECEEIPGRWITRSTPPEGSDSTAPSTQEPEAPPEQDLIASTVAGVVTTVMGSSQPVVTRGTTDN
Procedure: as §1

[8] = molecular target: T8, Recombinant human TNFRSF14 (HVEM) (human, UniProt Q92956 39-202, limits assumed)
T8 construct: Plate-adsorbed antigen of the ELISA
T8 sequence (looked up): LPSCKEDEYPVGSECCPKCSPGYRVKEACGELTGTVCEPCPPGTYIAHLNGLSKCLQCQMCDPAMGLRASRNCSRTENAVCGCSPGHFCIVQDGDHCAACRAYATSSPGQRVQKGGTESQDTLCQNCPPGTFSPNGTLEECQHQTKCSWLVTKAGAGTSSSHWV
Procedure: as §1

binding result [1]: no binding
binding result [2]: no binding
binding result [3]: no binding
binding result [4]: no binding
binding result [5]: no binding
binding result [6]: no binding
binding result [7]: no binding
binding result [8]: no binding
B1: 9B12 (antibody, mouse IgG1, V domains shown)
VH: EVQLQESGPSLVKPSQTLSLTCSVTGDSFTSGYWNWIRKFPGNRLEYMGYISYNGITYHNPSLKSRISITRDTSKNHYYLQLNSVTTEDTATYFCARYRYDYDGGHAMDYWGQGTLVTVSS
VL: DIQMTQTTSSLSASLGDRVTISCRASQDISNYLNWYQQKPDGTVKLLIYYTSKLHSGVPSRFSGSGSRTDYSLTITDLDQEDIATYFCQQGSALPWTFGQGTKVEIKR
notes: mouse IgG1 kappa; also called murine mAb 9B12; mouse anti-human OX40 IgG1κ monoclonal antibody
